Where a chain is given by its changes, count along the chain named. Names and notes keep the numbering of the source.
Tests used:
Details in all cases: both partners purified
[1] = biological target: T1, EcSufS, C-terminal his-tagged (wild type) (Escherichia coli, UniProt P77444 1-406, PLP (pyridoxal 5'-phosphate) cofactor); assay: fluorescence polarisation; 100 nM BODIPY-FL-labeled EcSufE titrated with EcSufS; 50 mM Mops pH 8.0, 150 mM NaCl, 0.1 mg/ml bovine serum albumin, 25 °C, 30 min; presence of 500 μM cysteine; apparent KD
T1 construct: EcSufS, cysteine desulfurase SufS of Escherichia coli, UniProt P77444; the gene was cloned; also called WT EcSufS; cysteine desulfurase SufS; source: E. coli BL21(DE3)Δsuf, pET44, autoinduction, purified (Ni2+ HisTrap HP); not shown: His tag, C-terminal, kept
T1 sequence: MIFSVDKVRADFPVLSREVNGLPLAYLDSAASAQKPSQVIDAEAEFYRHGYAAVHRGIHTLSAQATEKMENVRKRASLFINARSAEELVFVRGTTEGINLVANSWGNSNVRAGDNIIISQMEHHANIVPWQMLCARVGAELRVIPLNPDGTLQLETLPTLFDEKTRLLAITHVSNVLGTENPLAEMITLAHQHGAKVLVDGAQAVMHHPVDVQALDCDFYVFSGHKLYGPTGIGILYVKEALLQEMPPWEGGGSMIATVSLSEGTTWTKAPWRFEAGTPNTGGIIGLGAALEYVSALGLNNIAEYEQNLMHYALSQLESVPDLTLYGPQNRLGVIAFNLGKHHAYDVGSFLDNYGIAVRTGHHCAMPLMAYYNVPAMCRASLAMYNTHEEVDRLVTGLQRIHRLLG

[2] = biological target: T2, F350A EcSufS, C-terminal his-tagged (Escherichia coli, UniProt P77444 1-406, F350A, PLP (pyridoxal 5'-phosphate) cofactor); assay: fluorescence polarisation; 100 nM BODIPY-FL-labeled EcSufE titrated with EcSufS; 50 mM Mops pH 8.0, 150 mM NaCl, 0.1 mg/ml bovine serum albumin, 25 °C, 30 min; absence of cysteine; apparent KD
T2 construct: EcSufS of Escherichia coli, UniProt P77444, with F350A; also called F350A SufS; source: E. coli BL21(DE3)Δsuf, pET44, autoinduction, purified (Ni2+ HisTrap HP); not shown: His tag, C-terminal, kept
T2 sequence: T1 sequence with F350A

[3] = biological target: T1, EcSufS, C-terminal his-tagged (wild …); assay: as above
[4] = biological target: T3, S349A EcSufS, C-terminal his-tagged (Escherichia coli, UniProt P77444 1-406, S349A, PLP (pyridoxal 5'-phosphate) cofactor); assay: as above
T3 construct: EcSufS of Escherichia coli, UniProt P77444, with S349A; also called S349A SufS; source: E. coli BL21(DE3)Δsuf, pET44, autoinduction, purified (Ni2+ HisTrap HP); not shown: His tag, C-terminal, kept
T3 sequence: T1 sequence with S349A

[5] = biological target: T4, H343A EcSufS, C-terminal his-tagged (Escherichia coli, UniProt P77444 1-406, H343A, PLP (pyridoxal 5'-phosphate) cofactor); assay: as above
T4 construct: EcSufS of Escherichia coli, UniProt P77444, with H343A; also called H343A SufS; source: E. coli BL21(DE3)Δsuf, pET44, autoinduction, purified (Ni2+ HisTrap HP); not shown: His tag, C-terminal, kept
T4 sequence: T1 sequence with H343A

- Kd [1]: 0.6 µM
- Kd [2]: > 40 µM
- Kd [3]: 5.2 µM
- Kd [4]: 2.2 µM
- Kd [5]: > 20 µM
B1: BODIPY-FL-labeled C51A/E107C EcSufE (natural protein, Escherichia coli)
chain: MALLPDKEKLLRNFLRCANWEEKYLYIIELGQRLPELRDEDRSPQNSIQGAQSQVWIVMRQNAQGIIELQGDSDAAIVKGLIAVVFILYDQMTPQDIVNFDVRPWFCKMALTQHLTPSRSQGLEAMIRAIRAKAAALS
modifications: BODIPY-FL maleimide label (labeling efficiency 60 to 80%)
notes: EcSufE, transpersulfurase SufE of Escherichia coli, UniProt P76194, with C51A and E107C; also called "WT" EcSufE (double mutant background); C51A/E107C EcSufE control

— article PMC11408855, “The structure of the SufS–SufE complex reveals interactions driving protected persulfide transfer in iron-sulfur cluster biogenesis” (The Journal of Biological Chemistry, 2024)
